Test: yeast display, Sf9 membrane polyspecificity reagent, FACS + sequencing; frameworks hold sequencing errors
Method in brief: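 Galactose-induced (36–48 hours) yeast carrying a synthetic nanobody display library were exposed to 10% biotinylated, detergent-solubilized Sf9 membrane reagent at 4 °C for 1 hour. FACS followed streptavidin microbead enrichment, using low and high (top ~1%) gates for expression (anti-HA) and reagent binding (streptavidin). Colony PCR, MiSeq 2 × 250 sequencing and CDR-length filtering followed. Labels for polyreactivity reflect the gate of origin.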

Sequence | polyreactivity (PSR sort gate)
QVQLVESGGGLVQAGGSLRLSCAASGIIFSDYTMGWYRQAPGKERELVAAITWSGASTYYADSVKGRFTISRDNAKNTVYLQMNSLKPEDTAVYYCAAREYWYPGYVSWFDYWGQGTQVTVSS | high polyreactivity
QVQLVESGGGLVQAGGSLRLSCAASGSIYWLYAMGWYRQAPGKERELVAAITWSGGRTYYADSVKGRFTISRDNAKYNVYLQMNSLKPEDTAVYYCARRQRPGYSNPARGGKYDYWGQGTQVTVSS | low polyreactivity
QVQLEESGGGLVQAGGSLRLSCAASGSIFSAYFMVWYRQAPGKERELVAAINRGGNTYYADSVKGRFTISRDNANITVYLQMNSLKPEDTAVYYCNAQWYYLRYRYDYWGQGTQVTVSS | high polyreactivity
QVQLVESGGGLVQAGGSLRLSCAASGFIFYAYAMGWYRPAPGKERELVAAISQRGGITYYADSVKGRFTISRDNAKNTVYLQMNRLKPEDTAVYYCNAGQRYYTSRYYYWGQGTQVTVSS | high polyreactivity
QVQLVESGGGLVQAGGSLRLSCAASGRNPMGWYRQAPGKDRELVASISRTGGSTYYADSVKGRFTISRDNAKNTDYLQMNSLKPEDTAVYYCNYFRRPPMYYWGQGTQVTVSS | high polyreactivity
QVQLVESGGGLGQAGGSLRLSCAASGRIFVDYAMGWYRQAPGKERELVAAINSGGSTNYADSVKGRFTISRDNAKNTVNLQMNSQKPEDTAVYYCNKDTLVYGYVQDYEYWGQGTQVTVSS | low polyreactivity
QVQLVESGGGLVQAGGSLRLSCAASGRTFRYNAMGWYRQAPGKERELVAAITYSGGTTYADSVKGRFTISRDNAKNTVYLQMNSLKPEDTAGYYCAARGYVWNIGRYYWGQGTQVTVSS | high polyreactivity
QVQLVESGGGLVQAGGSLRLSCAASGSIFSYYAMGWYRQAPGKETEVVAAISQNGGSTYYADSVKGRVTISRDNAKNTVYLQMNSLKPEDTAVYYCNAYSVYVRGEYWGQGTQVTVSS | high polyreactivity
QVQLVESGGGLDQAGGSLRLSCAASGSTFSRNAMGWYRQAPGKERELVAGISYIGGRTYYADSVKGRFTISRDNAKNTVYLQMNSLKPEDTAVYYCNVVPKSRDWQSYGSWGQGTQVTVSS | high polyreactivity
QVQRVESGGGLVQAGGSLRLSCAASGSTLVYNDMGWYRPAPGKEREFVAAIRSNDGSTYYADSVKGRFTISRDNAKNTVYLQMNSLKPEDTAVYYCNKDVWDGYDWPEFDYSGQGTQVTVSS | low polyreactivity
QVQLVESGGGLVQAGGRLRLSCAASGSIFQSYALAWYRQAPGKERELVAVITGGGGSTYYADSVKARFTISRDNAKNTVYLQMNSLKPEDTAVYYCNADFPSFGVIYSTRKDDSWGQGTQVTVSS | low polyreactivity
QVQLQEGGGGLVQAGVSLRLSCAASGYISYGDVMGWNRQAPGEERELVASIGLDATTNYADSVKGRFTISRDNAKISVYLQMNSLKPEATAVYYCAADVGSGVLCGYWGQGTQMTVSS | high polyreactivity
QVQLVESGGGLVQAGGSLRLSCAASGITFNKYAMGWYRQAPGKERELVAAISSRGGSTYYADSVKGRFTISRDNAKNTVYLQMNSLKPEDTAVYYCNADFYRASSNFDYWGQGTQVSVSS | high polyreactivity
QVQLVESGGGLVQAGGSLRLCCAASGNIFAYYAMGWYRQPPAKERELVAGISRRGGNTYYADSVKGRFTISRDNAKNTVYLQMNSLKPEDTAVYYCAAITYSGQRFDYWGQGTQVTVSS | high polyreactivity
QVQLVESGGGLVQAGGSLRLSCAASGYTFFTNVMGWYRKAPGKERELVATITAGGSTYADSVKGRFTISRDNAKNTFYLQMNSLKPEDTAVYYCAVDALTGAWLGGYPYWADGYDYWGQGTQVTVSS | low polyreactivity
QVQLVESGGGLVQAGGSLRLSCAASGFTFPWYAMGWYRQAPGKERELVAAISIGTGRTYYADSVKGRFTISRDNAKNTVYLQMNSLKPEDTAVYYCAAEDQYYEDGYWGQGTQVTVSS | high polyreactivity
QVQLVESGGGLVQAGGSLLLSCAASGRIFYRYAMGWYRQAPGKERELVAAISRGGSTYYADSVKGRYTISRDNAKNTVYLQMNSLKPEDTAVYYCAKDGYWGYDYWGQGTQVTVSS | high polyreactivity
QVQLVESGGGLVQAGGSLRLSCAASGRIFVINAMVWYRQAPGKERELVAGITSSGNTNYADSVKGRFTISRDNAKNTVYLQMNSLNPEDTAVYYCNAQVYLTWLTYWLYYPPNDYWGQGTQVTVSS | low polyreactivity
QVQLVESGGGLVKAGGSLRLSCAASGRTFWIYAMGWYRPAPGKERELRAAISQSSSNTYYADSVKGRVTLSRDNAKNTVYLQMNSLKPEDTAVYYCNAVVLRYQGSWLEYWGQGTQVTVSS | low polyreactivity
QVQLVESGGGLVQAGGSLRLSCAASGFTFQYYAMGWYRQAPGKERELVAAISWGGGSTYYADSVKGRFTISRDNAKNTVYLQMNSLKPEDTAVYYCNAYEYLSAGYDYWGQGTQVTVSS | low polyreactivity
QVQLVESGGGLVQAGGSLRLSCAASGSTFWYYAMGWYRQAPGKERELVADITISGGSTYYSDSVKGRFTISRDNAKNTVYLQMNSLKPEDTAVYYCATDDTHRVGWFDYWGQGTQVTVSS | low polyreactivity
QDQLVESRGGLVQAGVSLRLSCAASGIIFAENAMGWYRQAPGKERELVAAITWNGGRTYYADSVKGRFTISRDNAKNTVYLQMNSLKPEDTAVYYCNAVTVYYRIYEYWGQGTQVNVSS | high polyreactivity

Sequence | polyreactivity (PSR sort gate)
QVQLVESGGGLVQAGGSLRLSCAASGSILYYNAMGWYRQAHGKERELVAAISTRGGSTYYADSVKGRFTISRDNAKNTVYLQMNSLKPEDTAVYYCAADHNVIWGYYYWGQGTQVTVSS | high polyreactivity
QVQLVESGGGLVHAGGSLRLSCAASGIIFGSYAMGWYRQAPGKERELVAAITRSGGRTYYADSVKGRFTISRDNAKNTVYLQMNSLKPEDTAVYYCAADRGYRGATGKYDSWGQGTEVTVSS | high polyreactivity
QVQLVESGVCLVQSGGSLRLICAASGRIITPYTMGWYRQAPGKERELVATITWSGGSTYYADSVKGRFTISRDNSKNTVYLQMNSLKPEDTAVYYCAARQIYVWAEYDYWGQGTQVTVSS | low polyreactivity
QFHLVESGGGLFQAGGSLRISCAASGRTLLVNAMGWYRQAPGKERELVAVITRGGSTNYADSVKGRFTISRDNAKNTVYLQMNSLKPEDTAVYYCAKQFSPYRSYGPVVRYDYWGQGTQVTVSS | low polyreactivity
QVQLVESGGGLVQAGGSLRLSCAASGSIFYVYAMGWYRQAPGKERELVAAISWRGGSTYYADSVKGRFTISRDIAKITVYLQMNSLKPEDTAVYYCNADWSFWGQGTQVTVSS | high polyreactivity
QVQLVESGGGLVQAGGSLRLSCAASGYTFIYYAMGWYRQAPGTERELVATISIDGSTNYADSVKGRFTISRDNAKNTVYLQMNSLKPEDTAVYYCNRERYEDYDYWGQGTQVTVSS | high polyreactivity
QVQLVESGGGLVQAGGSLRLSCAASGSTFQKNVMGWYRQAPGKERELVAAITSVGSTNYADSVKGRFTISRDNAKNTVYLQMNSLKPEDTAVYYCAKDQVPYYYVFGVYDYDYWGQGTQVTVSS | low polyreactivity
QDQLEESGGGLVQAGGSLRLSFAASGSTFYGYARGWYRPAPGKERELVAAISVNGGSTYYADSVKGRFTISRDNAKNTVYLQMNSLKPDETAVYYCAAGSGWRFDYWGQGTQVTVSS | low polyreactivity
LVQVVESGGGLVQAGGSLRLSCAASGIFSRYARGWYRQAPGKERELVAAISNGGRTYYADSVKGRFTSARDNAKNTVYLQMNSLNPEDTAVYYCNKVRSPWYESWGQGTQVTVSS | high polyreactivity
QVQLVESRGGLVQAGGSLRLSCAASGITSRLNAMVWYRQAPGKERELVAGISRGGGTTYYADSVKGRFTISRDNAKNTVYLQMNSLKTEDTAVYYCAAAYRVRGGTYDSWGQGTQVTVSS | high polyreactivity
QVQLVESVGGLVQAGGSLRLSCAASGRTFFYNAMGWYRQAPAKERELVAAIDWSGDSTYYADSVKGRFTISRDNAKNTVYLQMNSLKPEDTAVYYCAARRKNRRDYDYYYWGQGTQVTVSS | high polyreactivity
QVQLVESGGGLVQAGGSLRLSCAASGSTFRFNAMGWYRQAPGKERELVAAITGIGGITYYADSVKGRFTISRDNAKNTVYFQMNSLKPEDTAVYYCNAAGGYKPYLQDVDSRYDYWGQGTQVTVSS | high polyreactivity
QVQLVESGGGLVQAGGSLRLSCAASGRTSHRNVMGWYRQAPGTEREVVARISRSGGRTYYADSVKGRFTISRDNAKNTVYSQMNSLKPEDTAVYYCNADYSSRGANYDYWGQGTQVTVSS | high polyreactivity
QVQLVESGGGLVQAGGSLRLSCAASGRIFAYYAMGWYRQAPGKERELVAAITWRGGRTYYADSVKGRFTISRDNAKTTVYLQMNSLKPEDTAVYYCAARGYYSTYKLATDDYWGQGTQVTVSS | high polyreactivity
QVQLVESGGGLVQAGGSLRLSCAASGSTFRRNAMGWYRPAPGKERELVAAITSTDSTYYADSVKGRFTISRDNAKNTVYLQMNSLKPEDTAVYYCAKGYWWGGQMGYWGQGTQVTVSS | low polyreactivity
QVQLVESGGGLVQAGGSLRLSCAASGNIFTYYVMGWYRQAPGKESELVAAISRRGGSTYYADSVKGRFTISRDNAKNTVYLQMNSLNPEDTAVYYCADRWYKWSTFSGWSRYDYWGQGTQVTVSS | high polyreactivity
QVQLGESGGGLVQAGGSLRLSCAASGSIFRSYAMGWYRQAPGKERELVAAISWRGGRTYYADSVKGRFTISRDNAKNTVYLQMNSLKPEDTAVYYCAARNRAQQGTRDHDYWGQGTQVTLSS | high polyreactivity
QVQLVESGGGLVQAGGSLRLSCAASGRIFHPNAMGWYIQAPGKERELDAAISRSGSTYYADSVKGRFTISRDNAKNTVYLQMNSLKPEDTAVYYCATQTWSCFSGTPRIYDYWGQGTQVTVSS | high polyreactivity
QVQLVESGGGLVQAGGSLRLSCAASGFIIAFDNAMGWYRQAPGKERELVAAISSGTTTHYADSVKGRFTISRDNAKNTVYLQMNSLKPEDTAVYYCAADSVKQVRYGNVGHDYWGQGTQVTVSS | low polyreactivity
QVQLVESGGGLVQAGGSLRLSCAASGSIFGYNAMGWYRQAPGKEREFVAAISWSGGRTYYADSVKGRFTISRDNAKNTVYLQMNSLKPEDTAVYYCAAPSRPAPRFDYWGQGTQVTVSS | low polyreactivity
QVHLVESGGGLVQAGGSLRLSCAASGSIFYINAMGWYRQPPGKDREFVARISWRSGSTSYADSVKGRFTISRDNAKNTVYLQMNSLKPEDTAVYYCNAGVFANDNGGRRDQFTWEYEYWGQGTQVTVSS | low polyreactivity

Reference: the nanobody polyreactivity screen of Harvey et al. (2022)
